This passage reports Kd results from patent publication US20250223353A1 (BIOTHEUS, published 2025).

Holding throughout (assay): BLI (ForteBio), PVRIG-Fc on AHQ sensor, 100 nM Fab in solution, monovalent, 1:1 model
Experiment [1] deals with T1, mouse PVRIG-Fc protein (mouse).
T1 construct: not shown: Fc part
T1 chain: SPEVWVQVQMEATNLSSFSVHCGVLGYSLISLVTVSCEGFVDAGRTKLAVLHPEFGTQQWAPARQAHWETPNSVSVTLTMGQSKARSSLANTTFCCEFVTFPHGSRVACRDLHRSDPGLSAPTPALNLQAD
How it is done: (§1) Biofilm layer optical interference technology (ForteBio) was used to determine the binding and dissociation rate constant (KD) values of the antibodies and their variants or Fab fragments obtained in Example 1 to human, cynomolgus monkey and mouse PVRIG. ForteBio affinity measurement was performed according to existing methods (Este, P et al., High throughput solution-based measurement of antibody-antigen affinity and epitope binning. Mabs, 2013.5 (2): p270-8).
(§2) The antigen-loaded sensor was incubated in 100 nM Fab solution to the plateau phase, and then the sensor was transferred to an analysis buffer and incubated for at least 2 minutes for measuring dissociation rate. The kinetic analysis was performed using a 1:1 binding model.

Experiment [2] has as its target T2, human PVRIG-Fc protein (human, UniProt Q6DKI7 41-171).
T2 construct: also called PVRIG-Fc antigen (human); not shown: Fc part
T2 sequence: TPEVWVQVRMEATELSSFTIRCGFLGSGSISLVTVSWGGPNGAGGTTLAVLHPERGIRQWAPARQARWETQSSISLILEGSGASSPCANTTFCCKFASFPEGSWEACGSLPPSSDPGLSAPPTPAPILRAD
As to the method:
as §1, §2

Experiment [3] has as its target T3, cynomolgus monkey PVRIG-Fc protein (cynomolgus monkey, UniProt Q6DKI7 41-171 (human entry), limits assumed).
T3 construct: also called cynomolgus PVRIG-Fc protein; not shown: Fc part
T3 chain: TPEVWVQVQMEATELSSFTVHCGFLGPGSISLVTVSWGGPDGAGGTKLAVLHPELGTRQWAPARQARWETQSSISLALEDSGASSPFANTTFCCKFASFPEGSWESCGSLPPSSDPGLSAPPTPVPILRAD
As to the method: as §1, §2

B1: ADI-56127 Fab fragment (Fab, V domains shown)
VH: QVQLVQSGAEVKKPGSSVKVSCKASGGTESVDAISWVRQAPGQGLEWMGDIIPFFDTDYAQKFQGRVTITADESTSTAYMELSSLRSEDTAVYYCAREGGTSWTHFFDLWGRGTLVTVSS
VL: not shown
notes: Fab made by papain digestion of the yeast full-length IgG, purified with Kappa Select
A word on the Kd: it is the constant that tells how readily two partners part at equilibrium. Turning to B1, the Kd in experiment [1] is 114 nM; in experiment [2], 0.061 nM; in experiment [3] it was 0.128 nM.
